Source: the DeepSol protein solubility set

assay: soluble on expression in E. coli; label from the status in PepcDB or PDB records

| Sequence | soluble on expression in E. coli |
| --- | --- |
| MGSDKIHHHHHHVSCDYFNRGLCQSCRLMSKPVTEQLLEKEARLTHLLGGLPVDERLAPVSGPEFGFRNKAKMVVMGAAHAPVLGIPGPDGQPVDLSHCPLYPQDMQALLLELTSFVRRAGIPPYRVDKAKGELKFILLTRSAVRGEFMLRFVLRSKDAIPRIERELPKLLADFPAIKVVSVNLQPVHMARLEGEEEIFLTQATRLDEVFNGVPLFIRPKSFFQTNPEVASRLYATAAKWVDELSPKSLWDLFCGVGGFGLHCANESLPVTGIEIEAEAIDCAKTSAAAMGLDNLSFAALDSTDFAMGQQAQEVPEVIIVNPPRRGIGEELCERLSAFGPRAIIYSSCNPETLAKDLALISGYRIARVQLFDMFPHSDHFEVLCLLLKEAACASAD | not soluble |
| MGSDKIHHHHHHMGTVNRAVFLDRDGVINKDHGYVHQVDDFEYIEGVFEACLALKQQGYKLVVVTNQSGIARGMYTEDQFHSLTEWMDWNFADKGVDLDGIYYCPHHNEKGIGEYKVDCDCRKPKPGMLIDAAKFLKIDLSQSVMVGDKTDDMLAAKAAGVPTRILVRTGKAIADESDASVVLDSIADVPAFLKNHKAS | not soluble |
| MSLKITEIETLRPEEFPNLLWVLVHTDEGITGLGETFYGACSAEAYIHEWAANRLIGEDPLQIDRHAKRLSGYLGFRSAGAEMRGNSALDIALWDIFGKATGQPIYQLLGGKCRDTIRTYNTCAGPHYVRTAKQQSVANWGLANSVSARYDDLNAFLHRADELALDLLDSGITAMKIWPFDPYAEASDGYYISKSDLKRALEPFEKIRRAVGDKMDVMVEFHSLWNLPPALQIAEALREYETFWHEDPIRMDSLSSLKRYAERSLAPVCASETLATRWGFRDLLETNAAGIVMLDISWCGGLSEARKIASMAEAWHLPVAPHDCTGPVVLTASTHLSLNAPNALVQESVRAFYDGWYRDLVTALPTVKDGHITVPDGPGLGLELMPDIRERLTIAVRNTSDCEGHHHHHH | soluble |
| MGSDKIHHHHHHMEHISQLTAEIRDKAAYPDILVISRIFLPKEAVIGEYMYNRCLQDPERVIVLAASCSGDKVFDEGQQFPVYRWFYPRYWRSGFVGNILKPFVNIVCSFVLAIKLYFRYHYRYIEWGHGYDFPSLLLLSYLLPIRFFIYLHGNDFLCTLHNPVLRSLFKLTLKRAEGIVCNSSYTQDYLRTALRLDTPTYVINPVIRPEKFGNNVGSPSSLDDLRVRVRQAYNIPDSAIVILSIGRLVKHKAFDQVIDNIPLLLTFGVDVHYIICGEGPSESELKSLVHRLRVDKCVHFAGYVAERELAGYYAACDIFAMLTLLDSKPNNMEGFGMVYLEASYFGKPIIAPRLGGVLDTVQHEENGILVNPNSGYEVFQAFNRLCKDQQLREQLGRKGKELAKRRTLHRSLYKSEGKNPIL | not soluble |
| MASPAAGDVLIVGSGLVGRSWAMLFASGGFRVKLYDIEPRQITGALENIRKEMKSLQQSGSLKGSLSAEEQLSLISSCTNLAEAVEGVVHIQECVPENLDLKRKIFAQLDSIVDDRVVLSSSSSCLLPSKLFTGLAHVKQCIVAHPVNPPYYIPLVELVPHPETSPATVDRTHALMRKIGQSPVRVLKEIDGFVLNRLQYAIISEAWRLVEEGIVSPSDLDLVMSDGLGMRYAFIGPLETMHLNAEGMLSYSDRYSEGMKRVLKSFGSIPEFSGATVEKVNQAMCKKGPADPEHLAARREWRDECLKRELAKLKRQMQPQ | soluble |
| SWQSYVDDHLMCDVEGNHLTAAAILGQDGSVWAQSAKFPQLKPQEIDGIKKDFEEPGFLAPTGLFLGGEKYMVIQGEQGAVIRGKKGPGGVTIKKTNQALVFGFYDEPMTGGQCNLVVERLGDYLIESEL | soluble |
| MGSDKIHHHHHHMFFEIALIGTTASGKTYIANTLAREFNAVVLSLDSLCVYKEINIASAKPSQDDLASIKYFGVNLLSVNEHFNVELFIREYQKAKEFALARNLPLIIVGGTGFYLKTMIDGLSEKTLESKSSLNNDEIYALLLNIDPNYKIEKNDTYRLKKWLGIYEQTREIPSEFLKRTQKTGVLKDIEIYELAWDKEILKKRIKTRTKEMLDNGLLDEAKILFSKFDHKLKALNSIGLKECKEYLDGEISFKELENLITIHTTQLAKRQRTFNKKFQSKALEFDKALATLRMKFSIEK | not soluble |
| MSSISLKEIIPPQPSTQRNFTTHLSYDPTTNAIAYPCGKSAFVRCLDDGDSKVPPVVQFTGHGSSVVTTVKFSPIKGSQYLCSGDESGKVIVWGWTFDKESNSVEVNVKSEFQVLAGPISDISWDFEGRRLCVVGEGRDNFGVFISWDSGNSLGEVSGHSQRINACHLKQSRPMRSMTVGDDGSVVFYQGPPFKFSASDRTHHKQGSFVRDVEFSPDSGEFVITVGSDRKISCFDGKSGEFLKYIEDDQEPVQGGIFALSWLDSQKFATVGADATIRVWDVTTSKCVQKWTLDKQQLGNQQVGVVATGNGRIISLSLDGTLNFYELGHDEVLKTISGHNKGITALTVNPLISGSYDGRIMEWSSSSMHQDHSNLIVSLDNSKAQEYSSISWDDTLKVNGITKHEFGSQPKVASANNDGFTAVLTNDDDLLILQSFTGDIIKSVRLNSPGSAVSLSQNYVAVGLEEGNTIQVFKLSDLEVSFDLKTPLRAKPSYISISPSETYIAAGDVMGKILLYDLQSREVKTSRWAFRTSKINAISWKPAEKGANEEEIEEDLVATGSLDTNIFIYSVKRPMKIIKALNAHKDGVNNLLWETPSTLVSSGADACIKRWNVVLE | soluble |
| MGSDKIHHHHHHMRVAPAYGKIALLISVSFSHGRHSVQDKNFDALAGKFAKNIYGTPKGEVRAAVLWRDISQAMTQLPEGPLRILDAGGGFGFFSQKLAKLGHSVTLCDISSEMLALGQAQITEYENNSGEKLDITLLHAPIQSLTREELGQFDLILCHAVAEWLSDAKQTLAGLTQLLKPQGLFSLMFYNKEAMRFHSLISGNFDYVAADFKVKKKVGLTPSYPLYIDDVRGWVSDWQMELVTASGVRVIHDYLKTHQPPNSDFSQLLEMELQYSTHPAYIGLGRYVHFITRWQR | not soluble |
| MAHHHHHHMQRHSRRGLLKYLSGVRVEYGGSAAKLLDSYLHQDAGAKHAANLPVSQRYFYIKNRNNDASLSSATGASQQHQTVQLRLGAAQMLSSSQHTSIDNLNEAHPLYYAQTSPSAAGLAAPLVLALKRLRIRQLTALQGALVPLLLKGKHVIAHSETGTGKSFGIALALANRIIRDQLNYRLHTVVLVPTEELALQYDKWLRHFGGCTSQVVQVAIDSIPLEAQLAKLHNIQPHVLVGTPQRVAEIVRLSPSILGEKLRRKVDCVVLDEADMIIHANVVYGRQQLSGANLVDRLFRNRREEVPAQLVAASATVDGVTAQTLNTWTRNDRTVRLTTSFVEHTIPPTIQFYFFGASRAYPLERCLLLSLQLICTQRPDARILIFTEDERVAEVCTLLTSAEVEGEMRRIAPGALSSTKVFAGALHALPRSIPSADNKESHGPDNPVSHRRVPLTTATQQAAPFSAIRGSGNVYEDVRAHQVIRQHGDVYVKNNSSLSRLNEGKLVVGVGSFNSSRGLHVNGITHVILYGACPSAACFVHCAGRTGRMGAEGDVLVLYPPSSGRQVQQVCSSLEVPFHSSRMSAVEDLLRSGEARTTESAAGAVTESASGAAADNT | not soluble |
| MEKISDLIECIAYEKNLPKEMISKVIQGCLLKMAQNELDPLARYLVVEENKQLQLIQLVEVLEDGDERLVNDPSKYISLSKAKEMDPSVKIKDELSYSLSLESMKQGAINRLFKDLQYQLEKALEDSHFEAFQKRLNSVLMGQVILVDHNQNTFIEIEQQFQGVLSMRHRIKGESFKVGDSIKAVLTQVKRTKKGLLLELSRTTPKMLEALLELEVPEIKDKEIEIIHCARIPGNRAKVSFFSHNARIDPIGAAVGVKGVRINAISNELNKENIDCIEYSNVPEIYITLALAPAKILSVEIKKIPIEELNAEEKESIQERFIVNNHLQKAKVRLLDIEKSKAIGKGGVNVCLASMLTGYHIEFETIPSVKENAENESEKETPKVGVEALESLFKN | not soluble |
| MKEKIITYLEEKGKSSVDDLASSLDMAGAQKFPSLIKEISKLESKGKLRFEQDGTISLRKKKEKKDQVTVTGIFRANKAGFGFVSIDEAEEDLFIGRNDVGHAVDGDTVEVAIKKVANRLKGTAAEARVVKIVEHSLKAVVGRFVLDDEKPPYIGYIKSKNQKITQKIYIKKEPIVLDGTEIIKVAIEKYPTRRYDYFVASVEDVIGHQDDVGIDVLEVLESMDIVSEFPDAVLKEAQSVPDAPSEKDLIGRVDLRKEITFTIDGADAKDLDDAVHVKLLDNGNFELGVHIADVSYYVKEGSALDGEALARGTSVYVTDRVVPMLPERLSNGICSLNPNLDRLTQSAIMEIDKHGRVLHYQITQTVINTSFRMTYSDVNAIIAGDKELTEQYDKIVPSIHYMVTLHKILEKMRERRGALNFDTSEAKILVNDKGFPMDIVLRQRGLAERMIESFMLAANECVAEHFAKKNLPFIYRIHEEPKAEKLQKFMDYASIFGVSIQGTASKISQTALQDFMKKIEGQPGSDVLSMMLLRSMQQARYSEYNHGHYGLAAQYYTHFTSPIRRYPDLLVHRLVREYDKANSEKVEHFAQIIPEIASQTSSLERRAIDAERVVEAMKKAEYMEEYVGQEFTGVVSSVVKFGLFVELPNTIEGLIHMTTLPEFYQFNERTLSLQGEKSGKVFRVGQSIKVKVLKADKETGDIDFAYLPSDFDIIEKLSRSKKEKPRPSRRSGDSKTKANKRSKRSALSQKKKKKPFYKEAVKKGGKHGKGSRKRRRSK | soluble |
| MTKKVAIILANEFEDIEYSSPKEALENAGFNTVVIGDTANSEVVGKHGEKVTVDVGIAEAKPEDYDALLIPGGFSPDHLRGDTEGRYGTFAKYFTKNDVPTFAICHGPQILIDTDDLKGRTLTAVLNVRKDLSNAGAHVVDESVVVDNNIVTSRVPDDLDDFNREIVKQLQ | not soluble |
| MGSDKIHHHHHHDPLESMNRGIYKFNDTADKAVLKPIAGAYKAVLPSPIRTGVNNFFTNLGTFTSLVNNILQLELGKAMDNTGRLLINSTIGIGGLVDVASMDGVPNHRADFGQTLGKWGVGSGAYLVLPFLGPSTLRDTAGLTIDTLYFDPIQYTNHVRERNQLRMLSFIDLRSQYLPASDLIDDAALDPYIFMREAYLERRHQFVTGEASSFDDFDDDDEEVTPPEPQ | not soluble |
| MSLSKKRAGAMKNYGAGDQFKATKALTFTILHNDMPTYPMKRDWLFWKEVTERTGVTLKPTSVPASDYDKKRSLLIGAGDAPLLIPKTYPGQETAFVSSGAILPVSEYVRLMPNFRAKVEKWGLEGDLDSIRQADGNYYVLPGLHEKVKSGYSLSFRTDVLKKHGLDLPTTWDQVYDVLKALKAAYPDVYPFSDRWGQPTPGGALLNYLGPAFGTKAGWSYANTAWDTKARKYVFTGATDEYRQMLEYLRKLVAEKLMDPESFTQSDDDAVRKLLSGKSFVISANPQELVQNYRYNLGKQVKGATIEMIPVPIGPTGEVIVGSRLENGLMVAGRAAEGDSFVAMMQFVDWLWYSDGGQEFAKYGVEGVTYTSSGAGRYKVADGISYMGSDPSAPKDLQKDYGFTNGEFAYGGSWALVSSSFSPDEKAFQDAMAGRKLLPVDPAHPLKADEQEQATLWDTPLKDHVTQNTLKFALGKRPMSEWDAYLAELKAKNMQRYIDLHNTAYERFKKEHEGHHHHHH | soluble |
| MGSDKIHHHHHHMGEGLSVIGFDADDTLWQNESFFRLTEDKFAELLADFAEGAHLRERLLALETKNIGHYGFGIKGFMLSMIETAVEVTEGRVDGSVISKILEMGQDMLRHPIHLLPHVEETLGTLSDRYPLVLITKGDLLHQEQKLAASGLGDLFAGVEIVSAKLPSTYDTAFSVHGVGPKHAMMVGNSMKSDIRPALDAGAFAVYVPHGLTWELEHTETPVGHPRYHELPDLGGLIDLIETVTD | not soluble |
| MGSDKIHHHHHHMTVAIDRTKGDQSTPGNIIRGEGYALIRNSEATPDPDKVIHIPCADSFSVIVQLRDFNSHRLWNGNKLVFDGGHPRKSISIAYLGDEIKCQHRTTYDNVRFMLPRASIKEFLYEEGQRASAEPERIIGVDDPVVYHLALALLPSFARAGERNELFIEQVMLALLTHVQDRFASTQVPVCTGKGLAPWQLRRAKELIAGHLAEGVSVARLAEECGLSRSYFTKAFKCSTGVSPHEWLMRMRVDRAKELMLGSDEPLSQIGVACGFSDQPHFSRIFLRLAGASPSTWRRVKRQRTDAAL | not soluble |
